# T1: CD300a antigen (Homo sapiens, UniProt Q9UGN4)
# T1 construct: purchased Sino Biological 12449-H08H
# T1 sequence (Q9UGN4 18-180 limits assumed): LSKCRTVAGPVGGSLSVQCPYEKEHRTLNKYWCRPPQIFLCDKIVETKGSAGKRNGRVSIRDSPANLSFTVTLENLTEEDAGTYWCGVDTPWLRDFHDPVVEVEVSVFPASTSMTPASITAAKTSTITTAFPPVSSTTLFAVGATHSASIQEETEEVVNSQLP
# Legend:
# [1] = test system: A549 (human lung cancer cell line); assay: A549 cancer cell growth inhibition (CCK-8), CL7 and Imfinzi; assay type: cell-based; details: A549, 0% FBS, 10 μg/mL each, 5 days
# Description: (§1) In order to identify cancer cell growth inhibitory effects by combined administration of the anti-CD300c monoclonal antibody CL7 and an immunotherapeutic agent, the cancer cell growth inhibitory effects were compared using A549 (human lung cancer cell line) and MDA-MB-231 (human breast cancer cell line). Specifically, the cells were dispensed into a 96-well plate at 2×10^4 cells (A549) or 3×10^4 cells (MDA-MB-231) under 0% fetal bovine serum (FBS) conditions, and at 6×10^3 cells (A549) or 1×10^4 cells (MDA-MB-231) under 0.1% fetal bovine serum conditions. Subsequently, the cells were treated with the anti-CD300c monoclonal antibody and Imfinzi at 10 μg/mL alone or in combination, followed by incubation for 5 days. For a control group, the cells were treated with the same amount of phosphate buffer solution (PBS). Then, the cells were treated with CCK-8 (DOJINDO), and the absorbance was measured at OD 450 nm. The results are shown in FIG. 33 (A549) and FIG. 34 (MDA-MB-231).
# [2] = test system: THP-1; assay: M1 macrophage marker ELISA in THP-1; assay type: cell-based, human; details: THP-1, 10 μg/mL, 48 hours, antibody alone
# Procedure: In order to identify whether the induction of differentiation of monocytes into M1 macrophages increases when the cells are treated with the anti-CD300c monoclonal antibody CL7 produced in Example 1 and an immunotherapeutic agent, such as Imfinzi as an anti-PD-L1 antibody, Opdivo as an anti-PD-1 antibody, KEYTRUDA as an anti-PD-1 antibody, an anti-CD47 antibody (αCD47), and an anti-CTLA-4 antibody, alone in combination, THP-1 was dispensed into a 96-well plate at 1.5×10^4 cells/well and treated with the anti-CD300c monoclonal antibody and the immunotherapeutic agent, respectively, at 10 μg/mL alone or in combination, followed by incubation for 48 hours, and the production levels of tumor necrosis factor-α (TNF-α), IL-1b, and IL-8, which are differentiation markers of M1 macrophages, were measured using an ELISA kit (Human TNF-α Quantikine kit, R&D Systems).
# [3] = test system: colon cancer cell line (CT26) tumor; assay: In vivo cancer growth inhibition, CT26 model, CL7 dose range; parameters: species or system BALB/c mice; details: 1, 5, 10 or 25 mg/kg i.p. on D11, D14, D18, D21; 25 days
# Procedure: In order to identify anticancer effects of the anti-CD300c monoclonal antibody CL7 under in vivo conditions, a colon cancer cell line (CT26) at 2×10^5 cells was transplanted by subcutaneous injection into 8-week-old BALB/c mice to prepare syngeneic mouse tumor models. Animal breeding and experiments were all conducted in a SPF facility. On day 11 (D11) after the transplantation of the colon cancer cell line, the mice with a tumor size of 50 mm^3 to 100 mm^3 were administered the anti-CD300c monoclonal antibody 1 mg/kg, 5 mg/kg, 10 mg/kg, or 25 mg/kg, respectively, and for a control group, the mice were administered the same amount of phosphate buffered saline (PBS). Specifically, the mice were intraperitoneally injected with each dosage twice a week for two weeks (a total of 4 times on D11, D14, D18, and D21). The tumor volume was measured for 25 days.
# [4] = test system: MDA-MB-231 (human breast cancer cell line); assay: MDA-MB-231 cancer cell growth inhibition (CCK-8); assay type: cell-based; details: 10 μg/mL each, 5 days
# Description: as §1
# [5] = target: T1, CD300a antigen; assay: CD300a cross-reactivity binding ELISA; details: CD300a antigen 0.039, 0.63, 10 μg/mL
# Procedure: More specifically, the CD300a antigen (from Sino Biological) was used to treat at concentrations of 0.039 μg/mL, 0.63 μg/mL, and 10 μg/mL, and then binding ELISA was performed by the same method as in Experimental Example 2.1.
# [6] = test system: colon cancer cell line (CT26) tumor; assay: IFN-g ELISPOT of spleen in CT26 syngeneic mouse tumor model; assay type: in vivo, BALB/c mice; details: 25 mg/kg i.p., day 25
# Procedure: In order to identify effects of the anti-CD300c monoclonal antibody CL7 on CD8+ T cells under in vivo conditions, syngeneic mouse tumor models were prepared as in Experimental Example 3.2 and administered the anti-CD300c monoclonal antibody at the same concentration. On day 25 after injection, the mice were sacrificed, and spleen were collected from each of six mice in the CL7 25 mg/kg administration group showing a highest antitumor effect compared with the control group. Subsequently, the results were identified by measuring IFN-g through ELISPOT assay. Specifically, the Mouse IFN-g ELISpot kit was purchased from R&D Systems (#EL485), and IFN-g was measured according to the protocol for the kit.
# [7] = test system: colon cancer cell line (CT26) tumor; assay: Tumor volume, complete remission and long-term survival, CT26 model, combined administration; assay type: in vivo, BALB/c mice; details: CL7 25 mg/kg, anti-PD-1 10 mg/kg, anti-CTLA-4 4 mg/kg i.p. D11, D14, D18
molecule,measurement,setting,value
"CL7: anti-CD300c monoclonal antibody, VH3VL1 phage library, VH SEQ ID 327, VL SEQ ID 328 (antibody, V domains shown, CL7 Heavy Chain Variable Region; CL7 Light Chain Variable Region) VH: EVQLLESGGGLVQPGGSLRLSCAASGFTFSRYAMSWVRQAPGKGLEWVSAISGSGGSTYYADSVKGRFTISRDNSKNTLYLQMNSLRAEDTAVYYCARSSQGIFDIWGQGTLVTVSS VL: QSVLTQPPSASGTPGQRVTISCSGNNIGTRRVHWYQQLPDTAPKLLIYSKNNRPSGVPDRFSGSKSGTSASLAISGLRSEDEADYYCAAWDDSLSGPVFGGGTKLTVL",cell growth inhibitory effect compared with control group,[1],17%
same,production level of IL-8,[2],significantly increased
same,"production levels of all three differentiation markers (TNF-α, IL-1b, IL-8)",[2],increased
same,growth of CT26 colon cancer (tumor volume),[3],delayed the growth of CT26 colon cancer in a dose-dependent manner
same,cancer cell growth inhibitory effect compared with control group,"[4]; MDA-MB-231, 0.1% FBS (second statement)",19%
same,cancer cell growth inhibitory effect compared with control group,"[4]; MDA-MB-231, 0.1% FBS as printed (first statement)",19%
same,binding to antigens other than CD300c (CD300a),[5],did not bind to antigens other than CD300c
same,expression of IFN-g (ELISPOT),[6],increased
same,growth of cancer (tumor volume),[7],inhibited

# Reference: patent US20240254220A1, “COMBINED THERAPY USING ANTI-CD300C ANTIBODY” (CentricsBio, Inc., priority 2021, published 2024)
